In paper PMC8010718, “Direct coupling of oligomerization and oligomerization-driven endocytosis of the dopamine transporter to its conformational mechanics and activity” (The Journal of Biological Chemistry, 2021):

Key:
[1] = molecular target: the molecule itself; experiment: SDS-resistant oligomers on SDS-PAGE and Western blot; PAE cells stably expressing the tagged transporter, incubated with vehicle (DMSO), AIM-100 or ALs (20 μM, 2 h, 37 °C), with or without cocaine; lysis in TGH with 1% deoxycholate; Laemmli buffer 5 min 95 °C; 7.5% SDS-PAGE; GFP antibody
[2] = molecular target: the molecule itself; experiment: SDS-resistant oligomers on SDS-PAGE and Western blot; striatal synaptosomes of HA-DAT knock-in mice with vehicle, AIM-100 or ALs (20-40 μM, 2 h, 37 °C) in KRHG or KRHG/F12 (1:1); lysates in Laemmli buffer 30 min 42 °C; DAT antibody

B1: YFP- and HA-epitope tagged dopamine transporter (YFP-HA-DAT), wild type (natural protein, human, UniProt Q01959 1-620, looked up)
chain: MSKSKCSVGLMSSVVAPAKEPNAVGPKEVELILVKEQNGVQLTSSTLTNPRQSPVEAQDRETWGKKIDFLLSVIGFAVDLANVWRFPYLCYKNGGGAFLVPYLLFMVIAGMPLFYMELALGQFNREGAAGVWKICPILKGVGFTVILISLYVGFFYNVIIAWALHYLFSSFTTELPWIHCNNSWNSPNCSDAHPGDSSGDSSGLNDTFGTTPAAEYFERGVLHLHQSHGIDDLGPPRWQLTACLVLVIVLLYFSLWKGVKTSGKVVWITATMPYVVLTALLLRGVTLPGAIDGIRAYLSVDFYRLCEASVWIDAATQVCFSLGVGFGVLIAFSSYNKFTNNCYRDAIVTTSINSLTSFSSGFVVFSFLGYMAQKHSVPIGDVAKDGPGLIFIIYPEAIATLPLSSAWAVVFFIMLLTLGIDSAMGGMESVITGLIDEFQLLHRHRELFTLFIVLATFLLSLFCVTNGGIYVFTLLDHFAAGTSILFGVLIEAIGVAWFYGVGQFSDDIQQMTGQRPSLYWRLCWKLVSPCFLLFVVVVSIVTFRPPHYGAYIFPDWANALGWVIATSSMAMVPIYAAYKFCSLPGSFREKLAYAIAPEKDRELVDRGEVRQFTLRHWLKV
notes: dopamine transporter (DAT), human; also called WT YFP-HA-DAT; wtDAT; source: PAE cells, stably expressing, in intact cells and in lysate
[1]
  stoichiometry N: 3

B2: endogenous HA-DAT of HA-DAT knock-in mice (natural protein, mouse, UniProt Q61327 1-619, looked up)
chain: MSKSKCSVGPMSSVVAPAKEPNAVGPREVELILVKEQNGVQLTNSTLINPPQTPVEVQERETWSKKIDFLLSVIGFAVDLANVWRFPYLCYKNGGGAFLVPYLLFMVIAGMPLFYMELALGQFNREGAAGVWKICPVLKGVGFTVILISFYVGFFYNVIIAWALHYFFSSFTMDLPWIHCNNTWNSPNCSDAHSSNSSDGLGLNDTFGTTPAAEYFERGVLHLHQSRGIDDLGPPRWQLTACLVLVIVLLYFSLWKGVKTSGKVVWITATMPYVVLTALLLRGVTLPGAMDGIRAYLSVDFYRLCEASVWIDAATQVCFSLGVGFGVLIAFSSYNKFTNNCYRDAIITTSINSLTSFSSGFVVFSFLGYMAQKHNVPIRDVATDGPGLIFIIYPEAIATLPLSSAWAAVFFLMLLTLGIDSAMGGMESVITGLVDEFQLLHRHRELFTLGIVLATFLLSLFCVTNGGIYVFTLLDHFAAGTSILFGVLIEAIGVAWFYGVQQFSDDIKQMTGQRPNLYWRLCWKLVSPCFLLYVVVVSIVTFRPPHYGAYIFPDWANALGWIIATSSMAMVPIYATYKFCSLPGSFREKLAYAITPEKDRQLVDRGEVRQFTLRHWLLV
notes: also called endogenous mouse HA-DAT; source: endogenous, striatal synaptosomes from HA-DAT knock-in mice, in lysate
[2]
  stoichiometry N: 3
